Reference: US20230213519A1 (4TEEN4 PHARMACEUTICALS, published 2023)
No end group written: not given here. *: point of attachment. Biotin = O=C1N[C@H]2[C@H](CS[C@H]2CCCCC(=O)*)N1

Key:
[1] = biological target: T1, epitope mapping peptide #16 (human, not fully specified (C-terminus)); experiment: labelled AK1967 on biotinylated peptide #16 captured on avidin plate, chemiluminescence
T1 peptide: TVINPETGEQIQSWYK(Biotin)
Protocol: (§1) The plates were filled with 200 μl of labelled and diluted detection antibody (tracer) and incubated for 4 h at room temperature. Unbound tracer was removed by washing 4 times with 350 μl washing solution (20 mM PBS, pH 7.4, 0.1% Triton X-100). Well-bound chemiluminescence was measured by using the Centro LB 960 luminometer (Berthold Technologies GmbH & Co. KG).

[2] = biological target: T2, epitope mapping peptide #14 (human, not fully specified (C-terminus)); experiment: labelled AK1967 on biotinylated peptide #14 captured on avidin plate, chemiluminescence
T2 peptide: INPETGEQIQSWYK(Biotin)
Protocol: as §1

[3] = biological target: T3, epitope mapping peptide #15 (human, not fully specified (C-terminus)); experiment: labelled AK1967 on biotinylated peptide #15 captured on avidin plate, chemiluminescence
T3 peptide: VINPETGEQIQSWYK(Biotin)
Protocol: as §1

[4] = biological target: T4, epitope mapping peptide #7 (human); experiment: labelled AK1967 on biotinylated peptide captured on avidin plate, chemiluminescence
T4 peptide: Biotin-AFNFDQETVINPET
Protocol: as §1

[5] = biological target: T5, epitope mapping peptide #8 (human); experiment: as above
T5 peptide: Biotin-AFNFDQETVINPE
Protocol: as §1

[6] = biological target: T6, epitope mapping peptide #12 (human, not fully specified (C-terminus)); experiment: as above
T6 peptide: PETGEQIQSWYK(Biotin)
Protocol: as §1

[7] = biological target: T7, epitope mapping peptide #10 (human); experiment: as above
T7 construct: also called bio-AFNFDQETVIN
T7 peptide: Biotin-AFNFDQETVIN
Protocol: as §1

[8] = biological target: T8, epitope mapping peptide #13 (human, not fully specified (C-terminus)); experiment: as above
T8 peptide: NPETGEQIQSWYK(Biotin)
Protocol: as §1

[9] = biological target: T9, epitope mapping peptide #11 (human, not fully specified (C-terminus)); experiment: as above
T9 peptide: ETGEQIQSWYK(Biotin)
Protocol: as §1

[10] = biological target: T10, epitope mapping peptide #9 (human); experiment: as above
T10 peptide: Biotin-AFNFDQETVINP
Protocol: as §1

[11] = biological target: T11, epitope mapping peptide #5 (human); experiment: labelled AK1967 on biotinylated peptide #5 captured on avidin plate, chemiluminescence
T11 peptide: Biotin-AFNFDQETVINPETGE
Protocol: as §1

[12] = biological target: T12, epitope mapping peptide #3 (human); experiment: labelled AK1967 on biotinylated peptide #3 captured on avidin plate, chemiluminescence
T12 peptide: Biotin-AFNFDQETVINPETGEQI
Protocol: as §1

[13] = biological target: T13, epitope mapping peptide #4 (human); experiment: labelled AK1967 on biotinylated peptide #4 captured on avidin plate, chemiluminescence
T13 peptide: Biotin-AFNFDQETVINPETGEQ
Protocol: as §1

[14] = biological target: T14, epitope mapping peptide #6 (human); experiment: labelled AK1967 on biotinylated peptide #6 captured on avidin plate, chemiluminescence
T14 peptide: Biotin-AFNFDQETVINPETG
Protocol: as §1

[15] = biological target: T15, epitope mapping peptide #1 (human, biotinylated at the N- or C-terminus (which end is in the drawing only)); experiment: labelled AK1967 on biotinylated peptide #1 captured on avidin plate, chemiluminescence
T15 peptide: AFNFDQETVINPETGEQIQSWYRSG
Protocol: as §1

[16] = biological target: T16, epitope mapping peptide #17 (human, not fully specified (C-terminus)); experiment: labelled AK1967 on biotinylated peptide #17 captured on avidin plate, chemiluminescence
T16 peptide: ETVINPETGEQIQSWYK(Biotin)
Protocol: as §1

[17] = biological target: T17, epitope mapping peptide #2 (human); experiment: labelled AK1967 on biotinylated peptide #2 captured on avidin plate, chemiluminescence
T17 peptide: Biotin-AFNFDQETVINPETGEQIQ
Protocol: as §1

- binding result [1]: binds
- binding result [2]: binds
- binding result [3]: binds
- binding result [4]: no binding
- binding result [5]: no binding
- binding result [6]: no binding
- binding result [7]: no binding
- binding result [8]: no binding
- binding result [9]: no binding
- binding result [10]: no binding
- binding result [11]: binds
- binding result [12]: binds
- binding result [13]: binds
- binding result [14]: binds
- binding result [15]: binds
- binding result [16]: binds
- binding result [17]: binds
B1: monoclonal anti-DPP3 antibody AK1967 (clone 1967 of SEQ ID No.: 2) (antibody, V domains shown)
VH: QVTLKESGPGILQPSQTLSLTCSFSGFSLSTSGMSVGWIRQPSGKGLEWLAHIWWNDNKSYNPALKSRLTISRDTSNNQVFLKIASVVTADTGTYFCARNYSYDYWGQGTTLTVSS
VL: DVVVTQTPLSLSVSLGDPASISCRSSRSLVHSIGSTYLHWYLQKPGQSPKLLIYKVSNRFSGVPDRFSGSGSGTDFTLKISRVEAEDLGVYFCSQSTHVPWTFGGGTKLEIK
notes: Murine monoclonal; A human IgG1 kappa backbone was used for chimerization and humanization; The Octet run captured 'AK1967' on anti-human Fc biosensors, so the format in that run is uncertain; also called Procizumab; PCZ
